According to US20020165381A1, “Human androgen receptor variants” (priority 2000, published 2002):

B1: AR42: androgen receptor variant according to the invention with the amino acid sequence indicated in Seq ID NO 2 (protein, listed as Homo sapiens)
chain: MILWLHSLETARDHVLPIDYYFPPQKTCLICGDEASGCHYGALTCGSCKVFFKRAAEGKQKYLCASRNDCTIDKFRRKNCPSCRLRKCYEAGMTLGARKLKKLGNLKLQEEGEASSTTSPTEETTQKLTVSHIEGYECQPIFLNVLEAIEPGVVCAGHDNNQPDSFAALLSSLNELGERQLVHVVKWAKALPGFRNLHVDDQMAVIQYSWMGLMVFAMGWRSFTNVNSRMLYFAPDLVFNEYRMHKSRMYSQCVRMRHLSQEFGWLQITPQEFLCMKALLLFSIIPVDGLKNQKFFDELRMNYIKELDRIIACKRKNPTSCSRRFYQLTKLLDSVQPIARELHQFTFDLLIKSHMVSVDFPEMMAEIISVQVPKILSGKVKPIYFHTQ
B2: AR32: androgen receptor variant according to the invention with the amino acid sequence indicated in Seq ID NO 4 (protein, listed as Homo sapiens)
chain: MILWLHSLETARDHVLPIDYYFPPQKTCLICGDEASGCHYGALTCGSCKVFFKRAAEGKQKYLCASRNDCTIDKFRRKNCPSCRLRKCYEAGMTLGARKLKKLGNLKLQEEGEASSTTSPTEETTQKLTVSHIEGYECQPIFLNVLEAIEPGVVCAGHDNNQPDSFAALLSSLNELGERQLVHVVKWAKALPGFRNLHVDDQMAVIQYSWMGLMVFAMGWRSFTNVNSRMLYFAPDLVFNEYRMHKSRMYSQCVRMRHLSQEFGWLQITPQEFLCMKALLLFSINCERAASVHF

Assays:
AR [1] = biological target: T1, AR (Homo sapiens, UniProt P10275); assay: Transrepressing activity: pSG5-AR and different amounts of pSG5-AR42 co-transfixed in PC-3 cells with MMTV reporter plasmid; type: cell-based; design: expressed in transfected cells; settings: 10 ng pSG5-AR, different amounts of pSG5-AR42, 100 ng MMTV reporter plasmid, R1881 10^-9 M
T1 sequence (P10275 1-920): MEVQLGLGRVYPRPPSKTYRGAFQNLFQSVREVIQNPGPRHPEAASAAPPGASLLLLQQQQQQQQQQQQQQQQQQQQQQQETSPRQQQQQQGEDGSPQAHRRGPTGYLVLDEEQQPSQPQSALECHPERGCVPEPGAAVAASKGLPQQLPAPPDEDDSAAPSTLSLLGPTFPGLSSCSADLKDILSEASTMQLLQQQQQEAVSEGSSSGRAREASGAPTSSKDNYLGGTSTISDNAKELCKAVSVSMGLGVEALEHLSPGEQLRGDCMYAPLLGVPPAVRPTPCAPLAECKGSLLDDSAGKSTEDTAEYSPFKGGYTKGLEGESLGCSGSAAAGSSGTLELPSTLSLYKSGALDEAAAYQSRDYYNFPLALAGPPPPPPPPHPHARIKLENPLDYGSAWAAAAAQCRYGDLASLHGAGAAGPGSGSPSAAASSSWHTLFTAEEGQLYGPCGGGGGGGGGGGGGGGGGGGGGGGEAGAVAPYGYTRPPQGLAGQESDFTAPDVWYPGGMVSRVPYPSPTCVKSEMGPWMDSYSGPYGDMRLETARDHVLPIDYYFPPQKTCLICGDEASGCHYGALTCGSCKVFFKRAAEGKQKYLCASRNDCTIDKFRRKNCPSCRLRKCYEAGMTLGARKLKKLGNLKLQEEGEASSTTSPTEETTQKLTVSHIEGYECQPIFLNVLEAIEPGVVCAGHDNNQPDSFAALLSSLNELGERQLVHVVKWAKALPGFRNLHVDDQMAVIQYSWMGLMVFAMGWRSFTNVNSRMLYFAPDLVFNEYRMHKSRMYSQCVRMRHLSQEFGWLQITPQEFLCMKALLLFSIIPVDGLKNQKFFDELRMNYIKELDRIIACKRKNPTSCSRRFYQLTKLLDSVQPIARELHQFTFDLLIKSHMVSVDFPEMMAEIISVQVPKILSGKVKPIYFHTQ
Description: 10 ng of pSG5-AR and different amounts of pSG5-AR42 were co-transfixed in PC-3 cells. In addition, 100 ng of a reporter plasmid, which contains the MMTV promoter, was transfixed.
(§1) A vector for the transient expression of AR42, AR32 or AR is built in the pSG5 plasmid (Stratagene). A constant amount of pSG5-AR and varying amounts of pSG5-AR42 or pSG5-AR32 are transfixed in CV-1 cells. In the control, a pSGS plasmid, which contains an irrelevant cDNA of similar length, is cotransfixed with the pSG5-AR. In addition, a reporter plasmid, which contains one or more copies of a steroid-response element or a selective androgen-response element, coupled to a luciferase reporter gene, is cotransfixed. After treatment with an androgen, an increase in the reporter gene activity is measured.

AR [2] = biological target: T1, AR; assay: Transrepressing activity of AR42 and AR32 in CV-1 cells (luciferase reporter, Example 5); type: cell-based; design: expressed in transfected cells; host or cells: CV-1 cells; settings: constant amount of pSG5-AR, varying amounts of pSG5-AR42 or pSG5-AR32, after treatment with an androgen
Description: as §1

[3] = test system: MMTV promoter reporter plasmid in PC-3 cells; assay: Transactivation reporter assay: pSG5-AR42 co-transfixed with MMTV promoter reporter plasmid in PC-3 cells, treated with androgens; type: cell-based, human; settings: 100 ng pSG5-AR42 + 100 ng MMTV reporter plasmid, R1881, testosterone or DHT at 10^-7 M
Description: 100 ng of pSG5-AR42 was co-transfixed in PC-3 together with 100 ng of a reporter plasmid, which contains the MMTV promoter. These cells were then treated with various androgens (R1881: metribolone; T: testosterone; DHT: 5α-dihydrotestosterone) with a final concentration of 10^−7 M.
A vector for the transient expression of AR42 or AR32 is built in the pSG5 plasmid (Stratagene). This vector is transfixed in CV-1 or PC-3 cells. Parallel to this, a reporter plasmid that contains one or more copies of a steroid response element or a selective androgen response element, coupled to a luciferase reporter gene, is cotransfixed. To find specific effectors of AR42 or AR32, a high-throughput screening of substance banks is to be performed. Substances that trigger the activity of the reporter gene at a concentration of 10^−6 M or less are further processed. The search for receptor antagonists is performed in the presence of 10^−9 M androgen, e.g., R1881. Substances are selected that at least divide in half the androgen induction at a concentration of 10^−6 M or less.

Molecule	transrepressing activity (reporter gene activity of stimulated AR) (AR [1])	transrepressing activity (reporter gene activity of stimulated AR) (AR [2])	transactivating function (reporter gene activity) [3]
B1	inhibited the transactivating effects of stimulated AR	inhibit these transactivating effects of stimulated AR	does not have any transactivating function
B2		inhibit these transactivating effects of stimulated AR	
